According to the Immune Epitope Database (IEDB):

What was measured:
HLA-A*01:01 = test: IEDB peptide-MHC binding, purified MHC/direct/fluorescence; filed as Kd, often an IC50 or EC50 that approximates it; ≥ and ≤ were set here for values at or beyond the usual limits of such assays
HLA-A*11:01 [1] = test: as above
HLA-A*26:01 [2] = test: as above
HLA-A*31:01 [3] = test: as above
HLA-B*07:02 = test: as above
HLA-B*15:17 [4] = test: as above
HLA-B*18:01 = test: as above
HLA-B*57:01 = test: as above
HLA-B*58:01 = test: as above
HLA-A*02:01 [5] = test: IEDB peptide-MHC binding, purified MHC/competitive/fluorescence; filed as Kd, often an IC50 or EC50 that approximates it; ≥ and ≤ were set here for values at or beyond the usual limits of such assays; details: source organism: Giardia lamblia ATCC 50803
HLA-A*02:03 = test: as above; details: source organism: Giardia lamblia ATCC 50803
HLA-A*26:02 [6] = test: as above
HLA-A*26:03 = test: as above
HLA-A*30:01 = test: as above
HLA-A*68:02 [7] = test: as above
HLA-B*15:01 [8] = test: as above
HLA-B*39:01 = test: as above
HLA-A*26:02 [9] = test: IEDB peptide-MHC binding, purified MHC/direct/fluorescence; filed as Kd, often an IC50 or EC50 that approximates it; ≥ and ≤ were set here for values at or beyond the usual limits of such assays
HLA-A*11:01 [10] = test: IEDB peptide-MHC binding, purified MHC/competitive/fluorescence; ≥ and ≤ were set here for values at or beyond the usual limits of such assays; details: source organism: Vaccinia virus WR
HLA-B*15:01 [11] = test: as above; details: source organism: Vaccinia virus WR
HLA-A*02:01 [12] = test: IEDB peptide-MHC binding, purified MHC/direct/fluorescence; filed as Kd, often an IC50 or EC50 that approximates it; ≥ and ≤ were set here for values at or beyond the usual limits of such assays
HLA-A*68:02 [13] = test: as above; details: source organism: Camelpox virus M-96
HLA-A*69:01 = test: as above
HLA-B*08:01 = test: as above
HLA-B*08:03 = test: as above; details: source organism: Variola virus
HLA-B*15:01 [14] = test: as above; details: source organism: Camelpox virus M-96
HLA-B*15:09 [15] = test: as above; details: source organism: Variola virus
HLA-B*27:05 = test: as above
HLA-B*46:01 = test: as above; details: source organism: Camelpox virus M-96
HLA-B*48:01 = test: as above
HLA-A*11:01 [16] = test: IEDB peptide-MHC binding, purified MHC/competitive/fluorescence; filed as Kd, often an IC50 or EC50 that approximates it; ≥ and ≤ were set here for values at or beyond the usual limits of such assays
HLA-A*26:01 [17] = test: as above; details: source organism: Vaccinia virus WR
HLA-A*31:01 [18] = test: as above; details: source organism: Vaccinia virus WR
HLA-B*35:01 = test: as above; details: source organism: Vaccinia virus WR
HLA-B*15:03 = test: IEDB peptide-MHC binding, purified MHC/competitive/radioactivity; filed as Kd, often an IC50 or EC50 that approximates it; ≥ and ≤ were set here for values at or beyond the usual limits of such assays; details: source organism: Vaccinia virus WR
HLA-B*40:01 = test: IEDB peptide-MHC binding, purified MHC/direct/fluorescence; filed as Kd, often an IC50 or EC50 that approximates it; ≥ and ≤ were set here for values at or beyond the usual limits of such assays
HLA-B*15:09 [19] = test: IEDB peptide-MHC binding, purified MHC/competitive/fluorescence; filed as Kd, often an IC50 or EC50 that approximates it; ≥ and ≤ were set here for values at or beyond the usual limits of such assays
HLA-A*03:01 = test: IEDB peptide-MHC binding, purified MHC/direct/fluorescence; filed as Kd, often an IC50 or EC50 that approximates it; ≥ and ≤ were set here for values at or beyond the usual limits of such assays; details: source organism: Variola virus
HLA-B*51:01 = test: as above; details: source organism: Camelpox virus M-96
HLA-B*15:17 [20] = test: IEDB peptide-MHC binding, purified MHC/competitive/fluorescence; filed as Kd, often an IC50 or EC50 that approximates it; ≥ and ≤ were set here for values at or beyond the usual limits of such assays; details: source organism: Vaccinia virus
[21] = source organism: Giardia lamblia ATCC 50803
[22] = source organism: Escherichia coli O157:H7 str. EDL933
[23] = source organism: Camelpox virus M-96
[24] = source organism: Vaccinia virus WR
[25] = source organism: Francisella tularensis subsp. holarctica LVS
[26] = source organism: Francisella tularensis subsp. tularensis FSC033
[27] = source organism: Francisella tularensis subsp. tularensis FSC198
[28] = source organism: Vaccinia virus

FMKVKFEAL was tested, and the Kd (HLA-A*01:01; [21]) was ≥ 20 µM, the Kd (HLA-A*11:01 [1]; [21]) was ≥ 20 µM and the Kd (HLA-A*26:01 [2]; [21]) was ≥ 20 µM. The Kd (HLA-A*31:01 [3]; [21]) was ≥ 20 µM, the Kd (HLA-B*07:02; [21]) was ≥ 20 µM and the Kd (HLA-B*15:17 [4]; [21]) was ≥ 20 µM. The Kd (HLA-B*18:01; [21]) was ≥ 20 µM, the Kd (HLA-B*57:01; [21]) was ≥ 20 µM and the Kd (HLA-B*58:01; [21]) was ≥ 20 µM. The Kd (HLA-A*02:01 [5]) was 0.217 µM, the Kd (HLA-A*02:03) was 0.0298 µM and the Kd (HLA-A*26:02 [6]; [21]) was ≥ 20 µM. For the same sequence, the Kd (HLA-A*26:03; [21]) was ≥ 20 µM, the Kd (HLA-A*30:01; [21]) was 4.26 µM and the Kd (HLA-A*68:02 [7]; [21]) was 4.62 µM. The Kd (HLA-B*15:01 [8]; [21]) was 0.168 µM and the Kd (HLA-B*39:01; [21]) was ≥ 20 µM.

FTHREQLFM gave a Kd (HLA-A*26:01 [2]; [22]) of 0.059 µM and a Kd (HLA-A*26:02 [9]; [22]) of 0.028 µM.

In the case of IQFMHEQGY, the IC50 (HLA-A*11:01 [10]) is reported as ≥ 108 µM, the IC50 (HLA-B*15:01 [11]) is reported as 6.83 µM and the Kd (HLA-A*01:01; [23]) is reported as ≥ 20 µM. The Kd (HLA-A*02:01 [12]; [23]) was ≥ 20 µM, the Kd (HLA-A*68:02 [13]) was ≥ 20 µM and the Kd (HLA-A*69:01; [23]) was ≥ 20 µM. The Kd (HLA-B*07:02; [23]) was ≥ 20 µM, the Kd (HLA-B*08:01; source organism: Variola virus) was ≥ 20 µM and the Kd (HLA-B*08:03) was ≥ 20 µM. The Kd (HLA-B*15:01 [14]) was 0.052 µM, the Kd (HLA-B*15:09 [15]) was ≥ 20 µM and the Kd (HLA-B*15:17 [4]; [23]) was 0.29 µM. The Kd (HLA-B*27:05; [23]) was 0.929 µM, the Kd (HLA-B*46:01) was ≥ 20 µM and the Kd (HLA-B*48:01; [23]) was ≥ 20 µM. For the same sequence, the Kd (HLA-B*57:01; [23]) was 1.96 µM, the Kd (HLA-B*58:01; [23]) was ≥ 20 µM and the Kd (HLA-A*11:01 [16]; [24]) was ≥ 20 µM. The Kd (HLA-A*26:01 [17]) was ≥ 20 µM, the Kd (HLA-A*26:02 [6]; [24]) was ≥ 20 µM and the Kd (HLA-A*30:01; [24]) was 0.0024 µM. The Kd (HLA-A*31:01 [18]) was ≥ 20 µM, the Kd (HLA-B*35:01) was 0.104 µM and the Kd (HLA-B*15:03) was 0.00366 µM.

In the case of PTIPEQKCM, the Kd (HLA-A*26:03; source organism: Entamoeba histolytica HM-1:IMSS) is reported as ≥ 20 µM.

REMGIVDLL was tested, and the Kd (HLA-A*01:01; [25]) was ≥ 20 µM, the Kd (HLA-A*02:01 [12]; [25]) was ≥ 20 µM and the Kd (HLA-A*11:01 [1]; [25]) was ≥ 20 µM. For the same sequence, the Kd (HLA-A*26:02 [9]; [26]) was ≥ 20 µM, the Kd (HLA-A*31:01 [3]; [25]) was ≥ 20 µM and the Kd (HLA-A*69:01; [25]) was ≥ 20 µM. For the same sequence, the Kd (HLA-B*07:02; [25]) was ≥ 20 µM, the Kd (HLA-B*08:01; [26]) was ≥ 20 µM and the Kd (HLA-B*15:17 [4]; [25]) was ≥ 20 µM. For the same sequence, the Kd (HLA-B*18:01; [25]) was 0.514 µM, the Kd (HLA-B*27:05; [25]) was ≥ 20 µM and the Kd (HLA-B*40:01; [25]) was 0.0014 µM. The Kd (HLA-B*48:01; [25]) was 0.0932 µM, the Kd (HLA-B*57:01; [25]) was ≥ 20 µM and the Kd (HLA-B*58:01; [25]) was ≥ 20 µM. The Kd (HLA-A*68:02 [7]; [27]) was ≥ 20 µM, the Kd (HLA-B*15:09 [19]; [27]) was ≥ 20 µM and the Kd (HLA-B*39:01; [27]) was 4 µM.

RVATENIAV was tested, and the Kd (HLA-A*01:01; [23]) was ≥ 20 µM, the Kd (HLA-A*02:01 [12]; [23]) was 0.0227 µM and the Kd (HLA-A*03:01) was ≥ 20 µM. The Kd (HLA-A*31:01 [3]; [23]) was ≥ 20 µM, the Kd (HLA-A*69:01; [23]) was 0.156 µM and the Kd (HLA-B*07:02; [23]) was 0.226 µM. For the same sequence, the Kd (HLA-B*08:01; source organism: Variola virus) was ≥ 20 µM, the Kd (HLA-B*18:01; [23]) was ≥ 20 µM and the Kd (HLA-B*27:05; [23]) was ≥ 20 µM. The Kd (HLA-B*40:01; [23]) was ≥ 20 µM, the Kd (HLA-B*46:01) was ≥ 20 µM and the Kd (HLA-B*48:01; [23]) was ≥ 20 µM. The Kd (HLA-B*51:01) was ≥ 20 µM, the Kd (HLA-B*57:01; [23]) was ≥ 20 µM and the Kd (HLA-B*58:01; [23]) was ≥ 20 µM. For the same sequence, the Kd (HLA-A*11:01 [16]; [28]) was ≥ 20 µM, the Kd (HLA-B*15:01 [8]; [28]) was 0.445 µM and the Kd (HLA-B*15:09 [19]; [28]) was ≥ 20 µM. The Kd (HLA-B*15:17 [20]) was ≥ 20 µM and the Kd (HLA-B*39:01; [28]) was 2.81 µM.

STPAILHIM gave a Kd (HLA-A*26:02 [9]; source organism: Listeria monocytogenes serotype 4b str. H7858) of 0.003 µM.
